Data reported in article PMC8359929.

Substrate: N[C@@H](C(=O)O)[C@@H](O)[C@H](O)[C@H](O)COP(=O)(O)O
Assay: purified protein
Assay type: biochemical, Salmonella enterica
Details: 0.1 M triethanolamine-HCl pH 8.0, 37 °C, 0.2 mM NADH

B1: D-glucosaminate-6-phosphate ammonia-lyase (DGL), native (Salmonella enterica subsp. enterica serovar Typhimurium str. 14028S) (protein)
chain: MTPNIYQQLGLKKVINACGKMTILGVSSVAPEVMQATARAASAFVEIDALVEKTGELVSRYTGAEDSYITSCASAGIAIAVAAAITHGDRARVALMPDSSGMANEVVMLRGHNVDYGAPVTSAIRLGGGRIVEVGSSNLATRWQLESAINEKTAALLYVKSHHCVQKGMLSIDDFVQVAQANHLPLIVDAAAEEDLRGWVASGADMVIYSGAKAFNAPTSGFITGRKTWIAACKAQHQGIARAMKIGKENMVGLVYALENYHQGQTTVTAAQLQPVAEAISAIHGLYADIEQDEAGRAIWRIRVRVNASELGLNAQDVEAQLRGGEIAIYARKYQLHQGVFSLDPRTVAEGEMALIVARLREIAEHAAD
In the case of B1, the Km is reported as 139 ± 26 µM, the kcat is reported as 27.4 ± 1.4 s⁻¹ and the kcat/Km is reported as 197000 ± 31000 M⁻¹ s⁻¹.
